Values quoted from earlier work as cited in publication PMC3903589.

Experiments:
[1] = target: CEACAM1 (UniProt P13688); test: SPR
[2] = target: NCAM (UniProt P13591); test: SPR

Kd [1] [µM] | Kd [2] [µM] | Substance
7.65 | – | CEACAM1 (from UniProt P13688)
– | 0.025 | NCAM (from UniProt P13591)
